{
  "source": "patent US20120220540A1",
  "about": "“SYNBODIES TO AKT1” (ARIZONA BOARD OF REGENTS FOR AND ON BEHALF OF ARIZONA STATE …, priority 2009, published 2012)",
  "key": {"[1]": {"target": "AKT1 (Homo sapiens, UniProt P31749)", "sequence (P31749 whole entry)": "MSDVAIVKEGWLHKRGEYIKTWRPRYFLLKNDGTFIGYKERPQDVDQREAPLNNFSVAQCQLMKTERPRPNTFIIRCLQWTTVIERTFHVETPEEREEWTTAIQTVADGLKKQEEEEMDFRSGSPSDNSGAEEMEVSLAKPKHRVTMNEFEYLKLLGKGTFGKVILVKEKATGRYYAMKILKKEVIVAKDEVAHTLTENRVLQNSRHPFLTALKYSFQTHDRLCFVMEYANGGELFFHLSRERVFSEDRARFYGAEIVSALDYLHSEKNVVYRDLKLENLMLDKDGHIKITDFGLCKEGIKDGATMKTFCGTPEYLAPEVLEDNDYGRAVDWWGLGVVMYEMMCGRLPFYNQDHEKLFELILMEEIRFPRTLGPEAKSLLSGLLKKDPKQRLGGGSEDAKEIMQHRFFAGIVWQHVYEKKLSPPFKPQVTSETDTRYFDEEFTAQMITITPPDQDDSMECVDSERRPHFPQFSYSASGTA", "experiment": "KD of synbody variants (Tables 2 and 4)", "assay_type": "binding", "design": "key to KD (nM): n.b. = no binding", "experimental": "Selection of screening of amino acid variants has been described above. Variants including modifications of conjugation chemistry, linker, spacers or adjunct moieties can be screened for retention of binding to AKT1. In some methods, either the AKT1 or the synbody is immobilized. Optionally binding of a variant is tested in competition with the lead AKT1 synbody discussed above. In one format, AKT1 is immobilized to a support and synbody variants are tested for binding by surface plasmon resonance.\nThe following synbodies have the same peptides as the lead synbody and are synthesized off of a lysine core but include the addition of different functional groups synthesized between the C-terminus of the peptide and the amine groups of the lysine scaffold (Table 2). Synbodies were conjugated with either a C-terminal cysteine protected against disulfide formation using a sulfo-tert-butyl group, or with different biotin-conjugated lysines where the spacer between the lysine and the backbone varied. For example, in synbody 5 the biotin was attached to the amino group of the side chain, synbody 6 used a caproic acid spacer, while synbody 7 used an eleven-unit polyethylene glycol spacer.\nThe following mutant forms of the lead peptide have been made in which either one or more amino acids are substituted or the orientation of the peptides on the linker is reversed (Table 4)."}, "[2]": {"target": "AKT2 (Homo sapiens, UniProt P31751)", "sequence (P31751 whole entry)": "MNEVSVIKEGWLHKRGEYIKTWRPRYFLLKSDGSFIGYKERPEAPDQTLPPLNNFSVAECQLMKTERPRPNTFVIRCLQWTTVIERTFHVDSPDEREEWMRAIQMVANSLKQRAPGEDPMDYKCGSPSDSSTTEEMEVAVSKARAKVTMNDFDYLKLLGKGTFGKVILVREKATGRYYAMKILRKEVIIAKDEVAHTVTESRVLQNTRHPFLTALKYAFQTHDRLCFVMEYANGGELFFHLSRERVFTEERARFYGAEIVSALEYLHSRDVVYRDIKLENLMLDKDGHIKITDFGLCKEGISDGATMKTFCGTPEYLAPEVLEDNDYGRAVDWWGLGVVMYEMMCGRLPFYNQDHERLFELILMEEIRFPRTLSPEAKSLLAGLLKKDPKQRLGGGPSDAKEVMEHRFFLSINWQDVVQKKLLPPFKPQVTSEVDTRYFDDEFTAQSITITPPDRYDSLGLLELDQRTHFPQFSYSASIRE", "experiment": "Immunoprecipitation of purified AKT2 from cell lysate with synbody (Western blot)", "assay_type": "binding", "conditions": "immunoprecipitate of purified 250 ng AKT2 from 500 mg of cell lysate", "experimental": "(§1) The synbody was tested for binding to AKT1 and in some experiments, AKT2 and AKT3."}, "[3]": {"target": "AKT3 (Homo sapiens, UniProt Q9Y243)", "sequence (Q9Y243 whole entry)": "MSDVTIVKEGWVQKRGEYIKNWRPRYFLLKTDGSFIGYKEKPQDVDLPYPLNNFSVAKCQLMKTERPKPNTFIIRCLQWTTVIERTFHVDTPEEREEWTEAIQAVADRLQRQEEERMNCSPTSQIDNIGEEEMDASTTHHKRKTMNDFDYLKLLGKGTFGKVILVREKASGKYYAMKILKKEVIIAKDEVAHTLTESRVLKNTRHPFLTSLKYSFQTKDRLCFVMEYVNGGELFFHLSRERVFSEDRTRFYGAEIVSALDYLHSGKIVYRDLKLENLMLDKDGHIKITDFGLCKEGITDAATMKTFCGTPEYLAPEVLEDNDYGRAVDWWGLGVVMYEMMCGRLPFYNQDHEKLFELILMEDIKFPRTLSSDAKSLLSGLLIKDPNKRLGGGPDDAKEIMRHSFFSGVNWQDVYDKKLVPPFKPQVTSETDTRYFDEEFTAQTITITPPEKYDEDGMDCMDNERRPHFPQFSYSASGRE", "experiment": "Immunoprecipitation of purified AKT3 from cell lysate with synbody (Western blot)", "assay_type": "binding", "conditions": "immunoprecipitate of purified 250 ng AKT3 from 500 mg of cell lysate", "experimental": "as §1"}, "[4]": {"target": "T1, AKT1 (human, UniProt P31749 1-480)", "T1 construct": "also called human AKT1; AKT1_HUMAN", "T1 sequence (P31749 whole entry)": "as the sequence (P31749 whole entry) above", "experiment": "method not stated (Table 2)"}, "[5]": {"target": "T1, AKT1", "experiment": "method not stated (Table 4)"}, "[6]": {"target": "AKT3 (human, UniProt Q9Y243 1-479, limits assumed)", "sequence (Q9Y243 whole entry)": "as the sequence (Q9Y243 whole entry) above", "experiment": "immunoprecipitation of 250 ng purified AKT3 from cell lysate with the synbody, Western blot", "experimental": "as §1"}, "[7]": {"target": "T1, AKT1", "experiment": "SPR, synbody at 12.5 and 6.25 nM injected over immobilized AKT1, 1:1 kinetic fit", "experimental": "as §1"}, "[8]": {"target": "T1, AKT1", "experiment": "SPR, 12.5 and 6.25 nM synbody injected over AKT1 surface, 1:1 kinetic fit; SPR, synbody injected over AKT1 surface, 1:1 kinetic fit", "experimental": "as §1"}, "[9]": {"target": "T1, AKT1", "experiment": "pull-down of S35-labeled AKT1 with synbody immobilized via biotin on magnetic beads, 1:1 fit; pull-down of S35-labeled AKT1, synbody on magnetic bead via biotin", "experimental": "as §1"}, "[10]": {"target": "AKT2 (human, UniProt P31751 1-481)", "sequence (P31751 whole entry)": "as the sequence (P31751 whole entry) above", "experiment": "immunoprecipitation of 250 ng purified AKT2 from cell lysate with the synbody, Western blot", "experimental": "as §1"}, "[11]": {"conditions": "Table 2, synbodies constructed from a lysine scaffold"}},
  "note": "Square brackets hold non-standard residues; d marks the D form. Ends that are not written are not given here. * marks the point of attachment. Biotin = O=C1N[C@H]2[C@H](CS[C@H]2CCCCC(=O)*)N1; Oct = octanoic acid spacer; oct = octanoic acid spacer; StBu = CC(C)(C)S*",
  "data": [
    {"molecule": "AWKVVPQRQIRHAYNRYGSGKCFRGWAHIFFGPHVIYRGGSG [m3-Akt26-23 KC]", "values": [
      {"measurement": "KD (nM)", "setting": "[1]; Table 4, synbodies constructed from mutant peptides on lysine scaffold", "value": "n.b."}
    ]},
    {"molecule": "CC[C@H](C)[C@H](NC(=O)[C@H](Cc1c[nH]cn1)NC(=O)[C@H](C)NC(=O)[C@H](Cc1c[nH]c2ccccc12)NC(=O)CNC(=O)[C@H](CCCNC(=N)N)NC(=O)[C@@H](N)Cc1ccccc1)C(=O)N[C@@H](Cc1ccccc1)C(=O)N[C@@H](Cc1ccccc1)C(=O)NCC(=O)N1CCC[C@H]1C(=O)N[C@@H](Cc1c[nH]cn1)C(=O)N[C@H](C(=O)N[C@H](C(=O)N[C@@H](Cc1ccc(O)cc1)C(=O)N[C@@H](CCCNC(=N)N)C(=O)NCC(=O)NCC(=O)N[C@@H](CO)C(=O)NCC(=O)NCCCC[C@H](NC(=O)CNC(=O)[C@H](CO)NC(=O)CNC(=O)[C@H](Cc1ccc(O)cc1)NC(=O)[C@H](CCCNC(=N)N)NC(=O)[C@H](CC(N)=O)NC(=O)[C@H](Cc1ccc(O)cc1)NC(=O)[C@H](C)NC(=O)[C@H](Cc1c[nH]cn1)NC(=O)[C@H](CCCNC(=N)N)NC(=O)[C@@H](NC(=O)[C@H](CCC(N)=O)NC(=O)[C@H](CCCNC(=N)N)NC(=O)[C@H](CCC(N)=O)NC(=O)[C@@H]1CCCN1C(=O)[C@@H](NC(=O)[C@@H](NC(=O)[C@H](CCCCN)NC(=O)[C@H](Cc1c[nH]cn1)NC(=O)[C@H](C)N)C(C)C)C(C)C)[C@@H](C)CC)C(=O)N[C@@H](CSSC(C)(C)C)C(N)=O)[C@@H](C)CC)C(C)C", "note": "[Akt26-23KC]", "values": [
      {"measurement": "Kd", "setting": "[1]; [11]", "value": 4, "unit": "nM"}
    ]},
    {"molecule": "AHKVVPQRQIRHAYNRYGSGKCFRGWAHIFFGPHVIYRGGSG(oct) (AHKVVPQRQIRHAYNRYGSGKCFRGWAHIFFGPHVIYRGGSG-oct; not fully specified; printed as AHKVVPQRQIRHAYNRYGSGKCFRGWAHIFFGPHVIYRGGSG(oct); also: branched on Lys21 side chain (linear writing)) [Akt26-23(Oct)KC]", "values": [
      {"measurement": "KD (nM)", "setting": "[1]; [11]", "value": "n.b."}
    ]},
    {"molecule": "CC[C@H](C)[C@H](NC(=O)[C@H](Cc1c[nH]cn1)NC(=O)[C@H](C)NC(=O)[C@H](Cc1c[nH]c2ccccc12)NC(=O)CNC(=O)[C@H](CCCNC(=N)N)NC(=O)[C@@H](N)Cc1ccccc1)C(=O)N[C@@H](Cc1ccccc1)C(=O)N[C@@H](Cc1ccccc1)C(=O)NCC(=O)N1CCC[C@H]1C(=O)N[C@@H](Cc1c[nH]cn1)C(=O)N[C@H](C(=O)N[C@H](C(=O)N[C@@H](Cc1ccc(O)cc1)C(=O)N[C@@H](CCCNC(=N)N)C(=O)NCC(=O)NCC(=O)N[C@@H](CO)C(=O)NCC(=O)NCCCC[C@H](NC(=O)CNC(=O)[C@H](CO)NC(=O)CNC(=O)[C@H](Cc1ccc(O)cc1)NC(=O)[C@H](CCCNC(=N)N)NC(=O)[C@H](CC(N)=O)NC(=O)[C@H](Cc1ccc(O)cc1)NC(=O)[C@H](C)NC(=O)[C@H](Cc1c[nH]cn1)NC(=O)[C@H](CCCNC(=N)N)NC(=O)[C@@H](NC(=O)[C@H](CCC(N)=O)NC(=O)[C@H](CCCNC(=N)N)NC(=O)[C@H](CCC(N)=O)NC(=O)[C@@H]1CCCN1C(=O)[C@@H](NC(=O)[C@@H](NC(=O)[C@H](CCCCN)NC(=O)[C@H](Cc1c[nH]cn1)NC(=O)[C@H](C)N)C(C)C)C(C)C)[C@@H](C)CC)C(=O)N[C@@H](CCCCNC(=O)CCCC[C@@H]1SC[C@@H]2NC(=O)N[C@@H]21)C(N)=O)[C@@H](C)CC)C(C)C", "note": "[lead synbody]", "values": [
      {"measurement": "cross-reactivity with AKT2", "setting": "[2]", "value": "little cross-reactivity"},
      {"measurement": "cross-reactivity with AKT3", "setting": "[3]", "value": "little cross-reactivity"}
    ]},
    {"molecule": "AHKVVPQRQIRHAYNRYGSG(oct)KCFRGWAHIFFGPHVIYRGGSG(oct) (AHKVVPQRQIRHAYNRYGSG[oct]KCFRGWAHIFFGPHVIYRGGSG-oct; not fully specified; printed as AHKVVPQRQIRHAYNRYGSG(oct)KCFRGWAHIFFGPHVIYRGGSG(oct); numbers in words are those of the source; also: branched on Lys21 side chain (linear writing)) [Akt26-(Oct)-23(Oct)KC]", "values": [
      {"measurement": "KD (nM)", "setting": "[1]; [11]", "value": "n.b."}
    ]},
    {"molecule": "Akt26(Oct)-23KC (designed binder, numbers in words are those of the source; also: bond at chain A 21 to a chain's C-terminus, Branched molecule; They shift if the listing holds a placeholder for the spacer) chain 1: AHKVVPQRQIRHAYNRYGSG[Oct]KC(StBu) chain 2: FRGWAHIFFGPHVIYRGGSG", "values": [
      {"measurement": "Kd", "setting": "[4]", "value": 6, "unit": "nM"}
    ]},
    {"molecule": "Akt26-23KKbiotin (designed binder, also: bond at chain A 21 to a chain's C-terminus, I split it into two chains; The name runs over rows r11 and r12; also called synbody 5) chain 1: AHKVVPQRQIRHAYNRYGSGKK(Biotin) chain 2: FRGWAHIFFGPHVIYRGGSG", "values": [
      {"measurement": "Kd", "setting": "[4]", "value": 4, "unit": "nM"}
    ]},
    {"molecule": "m5-Akt26-23 KC (designed binder, also: bond at chain A 21 to a chain's C-terminus, Mutant peptide on a lysine scaffold; Branched molecule, which I split into two chains) chain 1: AWKVVPQRWIRHAYNRYGSGKC chain 2: FRGWAHIFFGPHVIYRGGSG", "values": [
      {"measurement": "Kd", "setting": "[5]", "value": 8, "unit": "nM"}
    ]},
    {"molecule": "lead synbody (Akt26 and Akt23 on a lysine linker, second lysine with biotin) (designed binder, not fully specified (some residues); also: bond at chain A 21 to a chain's C-terminus, also called the synbody; first generation synbody) chain 1: AHKVVPQRQIRHAYNRYGSGKK chain 2: FRGWAHIFFGPHVIYRGGSG", "values": [
      {"measurement": "binding result", "setting": "[6]", "value": "binds"},
      {"measurement": "koff", "setting": "[7]", "value": 0.000295, "unit": "s⁻¹"},
      {"measurement": "Kd", "setting": "[8]", "value": 1.49, "unit": "nM"},
      {"measurement": "Kd", "setting": "[9]", "value": 4.9, "unit": "nM"},
      {"measurement": "binding result", "setting": "[10]", "value": "binds"}
    ]},
    {"molecule": "m4-Akt26-23 KC (designed binder, also: bond at chain A 21 to a chain's C-terminus, Mutant peptide on a lysine scaffold; Branched molecule, which I split into two chains) chain 1: AHKVVPQRWIRHAYNRYGSGKC chain 2: FRGWAHIFFGPHVIYRGGSG", "values": [
      {"measurement": "Kd", "setting": "[5]", "value": 5, "unit": "nM"}
    ]},
    {"molecule": "m6-Akt26-23 KC (designed binder, also: bond at chain A 21 to a chain's C-terminus, Mutant peptide on a lysine scaffold; Branched molecule, which I split into two chains) chain 1: AWKVVPQRWIRYAYNRYGSGKC chain 2: FRGWAHIFFGPHVIYRGGSG", "values": [
      {"measurement": "Kd", "setting": "[5]", "value": "~10", "unit": "nM"}
    ]},
    {"molecule": "m2-Akt26-23 KC (designed binder, also: bond at chain A 21 to a chain's C-terminus, Mutant peptide on a lysine scaffold; Branched molecule, which I split into two chains) chain 1: AHKVVYQRQIRFAYNRYGSGKC chain 2: FRGWAHIFFGPHVIYRGGSG", "values": [
      {"measurement": "Kd", "setting": "[5]", "value": 5, "unit": "nM"}
    ]},
    {"molecule": "m1-Akt26-23 KC (designed binder, also: bond at chain A 21 to a chain's C-terminus, Mutant peptide on a lysine scaffold) chain 1: AHKVVPQRQMRHAYSRYGSGKC chain 2: FRGWAHIFFGPHVIYRGGSG", "values": [
      {"measurement": "Kd", "setting": "[5]", "value": 15, "unit": "nM"}
    ]},
    {"molecule": "Akt26-23(hex)KC (designed binder, not fully specified (C-terminus); also: linker at chain A 21 to a chain's C-terminus via hex, Branched molecule) chain 1: AHKVVPQRQIRHAYNRYGSGKC(StBu) chain 2: FRGWAHIFFGPHVIYRGGSG", "values": [
      {"measurement": "Kd", "setting": "[4]", "value": 3, "unit": "nM"}
    ]}
  ]
}
